± gives the standard deviation of the averaged measurements.
System: ATP
Assay: switch fluorescence ratio, 500 uM ATP over buffer (Cy3 cluster intensity, sum of 5 cycles each) (fold (ratio)); higher = stronger signal-on switching upon ATP binding; sequences stand for … in TCGTCGGCAGCGTCAGATGTGTATAAGAGACAGTTTTTTTTTTTTTTTTTTTTTTTTT…TC
Conditions: aptamer strand: ATP DNA aptamer (quencher-CACCTGGGGGAGTATTGCGGAGGAAGG + anchor), 100 nM annealed; ATP concentration: 500 uM
How it was run: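 After annealing to 100 nM quencher-labelled ATP aptamer, Cy3-labelled switching-strand clusters on a modified Illumina MiSeq flow-cell were imaged in selection buffer. A second image followed after 15 min with 500 uM ATP at 22 °C, and five such buffer/ATP cycles were done, each separated by NaOH stripping and re-annealing. The fluorescence ratio, averaged per switch-domain sequence, is summed target-cycle over summed buffer-cycle Cy3 intensity per cluster, with clusters outside 100-1000 RFU excluded.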
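Note: ATP exposure 15 min at 22 °C before imaging.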

First: TTTCGTAGGT
Second: TTTCGTCGGC
The switch fluorescence ratio of the first is lower: 1.02 ± 0.022 for the first, 1.048 ± 0.0018 for the second.

First: TTTCGTGACT
Second: TTTCGTGGAC
The switch fluorescence ratio of the first is lower: 1.02 ± 0.035 for the first, 1.08 ± 0.015 for the second.

First: TTTCGTGGTG
Second: TTTCGTTTAC
The switch fluorescence ratio of the first is lower: 0.997 ± 0.031 for the first, 1.272 ± 0.0071 for the second.

TTTCGTTTGG and TTTCGTTTTC are within error of each other in switch fluorescence ratio: 0.981 ± 0.042 for the first, 1.08 ± 0.1 for the second.

TTTCGTTTTG and TTTCGTTTTT are within error of each other in switch fluorescence ratio: 0.998 ± 0.016 for the first, 0.991 ± 0.038 for the second.

TTTCTAATAT and TTTCTACGCG are within error of each other in switch fluorescence ratio: 1 ± 0.014 for the first, 1.01 ± 0.034 for the second.

TTTCTAGGTC and TTTCTAGTGA are within error of each other in switch fluorescence ratio: 1.015 ± 0.0048 for the first, 0.991 ± 0.047 for the second.

TTTCTATGGG and TTTCTCAGTA are the same in switch fluorescence ratio: 1.03 ± 0.033 for the first, 1.03 ± 0.041 for the second.

Going from TTTCTCAGTC to TTTCTCCCTT, the switch fluorescence ratio rises from 1 ± 0.039 to 1.19 ± 0.13.

TTTCTCCGTT and TTTCTCGAAT are within error of each other in switch fluorescence ratio: 1.44 ± 0.55 for the first, 1 ± 0.029 for the second.

TTTCTCGTCG and TTTCTCGTCT are within error of each other in switch fluorescence ratio: 1 ± 0.014 for the first, 0.988 ± 0.011 for the second.

TTTCTCGTTC and TTTCTCTGGT are within error of each other in switch fluorescence ratio: 1.15 ± 0.21 for the first, 0.993 ± 0.045 for the second.

Going from TTTCTGGCTG to TTTCTGTGAT, the switch fluorescence ratio falls from 1.025 ± 0.0043 to 1.004 ± 0.003.

TTTCTGTTTG and TTTCTTGGGG are within error of each other in switch fluorescence ratio: 1.01 ± 0.05 for the first, 0.979 ± 0.018 for the second.

TTTCTTGTAT and TTTCTTGTCA are within error of each other in switch fluorescence ratio: 1.02 ± 0.016 for the first, 0.996 ± 0.059 for the second.

TTTCTTTAAG and TTTCTTTCGT are within error of each other in switch fluorescence ratio: 0.985 ± 0.04 for the first, 1.12 ± 0.16 for the second.

TTTGAAAATG and TTTGAAAGGA are the same in switch fluorescence ratio: 1.01 ± 0.035 for the first, 1.01 ± 0.032 for the second.

TTTGAACGTG and TTTGAACTTT are within error of each other in switch fluorescence ratio: 0.969 ± 0.017 for the first, 0.991 ± 0.033 for the second.

TTTGAAGAAA and TTTGAAGAGT are within error of each other in switch fluorescence ratio: 1.06 ± 0.033 for the first, 1.04 ± 0.017 for the second.

TTTGAAGGAC and TTTGAAGGGA are within error of each other in switch fluorescence ratio: 0.992 ± 0.044 for the first, 0.996 ± 0.042 for the second.

TTTGAAGTGT and TTTGAATCG are within error of each other in switch fluorescence ratio: 0.997 ± 0.02 for the first, 1.01 ± 0.021 for the second.

TTTGAATTCA and TTTGACAGTG are within error of each other in switch fluorescence ratio: 1.19 ± 0.22 for the first, 0.966 ± 0.071 for the second.

TTTGACCAGG and TTTGACCGTT are within error of each other in switch fluorescence ratio: 1.02 ± 0.045 for the first, 0.988 ± 0.035 for the second.

TTTGACGG and TTTGACGGAA are within error of each other in switch fluorescence ratio: 0.972 ± 0.023 for the first, 1.27 ± 0.28 for the second.

TTTGACGTTT and TTTGACTGGT are within error of each other in switch fluorescence ratio: 1.02 ± 0.059 for the first, 0.984 ± 0.027 for the second.

TTTGACTTGA and TTTGAGAAGA are within error of each other in switch fluorescence ratio: 0.984 ± 0.048 for the first, 1.02 ± 0.012 for the second.

TTTGAGACAG and TTTGAGAGTA are within error of each other in switch fluorescence ratio: 0.994 ± 0.026 for the first, 0.96 ± 0.028 for the second.

TTTGAGCATT and TTTGAGCCCC are the same in switch fluorescence ratio: 1.04 ± 0.043 for the first, 1.04 ± 0.1 for the second.

TTTGAGGCAT and TTTGAGTCAG are within error of each other in switch fluorescence ratio: 1.71 ± 1.2 for the first, 0.994 ± 0.035 for the second.

TTTGAGTCTT and TTTGATACCC are within error of each other in switch fluorescence ratio: 1 ± 0.039 for the first, 0.991 ± 0.064 for the second.

TTTGATACTC and TTTGATACTG are within error of each other in switch fluorescence ratio: 1.15 ± 0.091 for the first, 1.06 ± 0.11 for the second.

TTTGATAGTC and TTTGATATGT are within error of each other in switch fluorescence ratio: 0.966 ± 0.07 for the first, 0.996 ± 0.039 for the second.

TTTGATCTT and TTTGATGCAG are within error of each other in switch fluorescence ratio: 0.974 ± 0.03 for the first, 0.993 ± 0.032 for the second.

Compared with TTTGATGTGT, TTTGCAATGT is higher in switch fluorescence ratio: 0.997 ± 0.032 for the first, 1.29 ± 0.1 for the second.

TTTGCAGCTT and TTTGCATGCC are within error of each other in switch fluorescence ratio: 1.49 ± 0.87 for the first, 1.05 ± 0.085 for the second.

TTTGCATTGT and TTTGCCCCGG are within error of each other in switch fluorescence ratio: 1.03 ± 0.035 for the first, 1.12 ± 0.12 for the second.

TTTGCCGGAG and TTTGCCTCCG are within error of each other in switch fluorescence ratio: 1.08 ± 0.065 for the first, 2.15 ± 1.7 for the second.

TTTGCCTCGG and TTTGCGG are within error of each other in switch fluorescence ratio: 0.984 ± 0.031 for the first, 1.009 ± 0.0082 for the second.

TTTGCGGGTG and TTTGCGTTTT are within error of each other in switch fluorescence ratio: 1.6 ± 0.91 for the first, 1.01 ± 0.025 for the second.

TTTGCTGGGA and TTTGCTGGTT are within error of each other in switch fluorescence ratio: 0.9812 ± 0.0098 for the first, 1.02 ± 0.071 for the second.

TTTGCTTAAC and TTTGGAAA are within error of each other in switch fluorescence ratio: 1.07 ± 0.13 for the first, 1.01 ± 0.033 for the second.

TTTGGAAATG and TTTGGAAGGG are within error of each other in switch fluorescence ratio: 1.0077 ± 0.00015 for the first, 1 ± 0.026 for the second.

Sequence TTTGGACCGA has a switch fluorescence ratio of 1.03 ± 0.016.

From the supplement of paper PMC10126150
